Experimental data as given in article PMC11257539.

Target: full-length human VARP with a C-terminal 10xHis tag (human) (UniProt Q96NW4)
Experiment: BLI

Chain of full-length human VARP with a C-terminal 10xHis tag (human) (Q96NW4 whole entry): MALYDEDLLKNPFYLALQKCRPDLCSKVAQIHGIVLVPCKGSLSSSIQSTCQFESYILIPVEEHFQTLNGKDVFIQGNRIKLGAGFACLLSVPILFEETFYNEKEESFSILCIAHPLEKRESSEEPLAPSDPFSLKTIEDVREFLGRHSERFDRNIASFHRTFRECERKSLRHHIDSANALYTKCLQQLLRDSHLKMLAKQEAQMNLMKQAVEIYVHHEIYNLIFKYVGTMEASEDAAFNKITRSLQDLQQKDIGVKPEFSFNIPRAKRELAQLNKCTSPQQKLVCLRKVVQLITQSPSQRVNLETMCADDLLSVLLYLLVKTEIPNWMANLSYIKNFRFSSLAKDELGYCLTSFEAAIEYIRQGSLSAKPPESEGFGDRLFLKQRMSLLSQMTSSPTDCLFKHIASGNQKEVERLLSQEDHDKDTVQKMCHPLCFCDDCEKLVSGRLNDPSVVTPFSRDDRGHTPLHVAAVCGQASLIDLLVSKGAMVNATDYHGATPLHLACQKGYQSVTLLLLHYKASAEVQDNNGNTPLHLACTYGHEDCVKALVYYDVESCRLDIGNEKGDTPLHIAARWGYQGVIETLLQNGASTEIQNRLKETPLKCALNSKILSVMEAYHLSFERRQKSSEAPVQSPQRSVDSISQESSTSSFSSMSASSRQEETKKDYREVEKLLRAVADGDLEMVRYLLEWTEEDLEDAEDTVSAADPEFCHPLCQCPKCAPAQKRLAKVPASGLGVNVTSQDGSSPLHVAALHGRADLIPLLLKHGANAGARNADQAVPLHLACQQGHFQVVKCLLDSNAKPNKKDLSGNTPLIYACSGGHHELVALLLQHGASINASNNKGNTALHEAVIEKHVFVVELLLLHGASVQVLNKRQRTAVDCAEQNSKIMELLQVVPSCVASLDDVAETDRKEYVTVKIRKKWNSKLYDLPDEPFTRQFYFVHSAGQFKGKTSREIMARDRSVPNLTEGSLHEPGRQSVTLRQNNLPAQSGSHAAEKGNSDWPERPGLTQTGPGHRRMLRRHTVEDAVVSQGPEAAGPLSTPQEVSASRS

Q: What does the source list for “Retromer heterotrimer (VPS26/VPS35/VPS29 subunits) (from UniProt O75436;Q96QK1;Q9UBQ0) (complex)”?
A: ka1: 5040 M⁻¹ s⁻¹; ka2: 0.0535 M⁻¹ s⁻¹; kdis1: 0.000363 s⁻¹; kdis2: 0.00891 s⁻¹
